Data on four molecules can be found in paper PMC7331820, “Identification of the amino acid position controlling the different enzymatic activities in walnut tyrosinase isoenzymes (jrPPO1 and jrPPO2)” (Scientific Reports, 2020).

What all share (experiment): photometric initial rates, Michaelis-Menten fit
Data set [1] deals with T1, jrPPO2 (Juglans regia, UniProt A0A2I4DDQ0, D361N/F398L/S401P/D582N).
T1 construct: gene LOC108979139; latent enzyme (active domain plus C-terminal domain, no transit peptide), E. coli, pGEX-6P-1, N-terminal GST tag (absent by mass)
In kind it is biochemical. The conditions noted are these: pH 6.0, 50 mM sodium phosphate, 2.5 mM SDS as activator, 25 °C. The source says:
(§1) photometric initial rates, Michaelis-Menten fit on jrPPO2

For data set [2], the target named is T2, jrPPO1 (Juglans regia, UniProt C0LU17).
T2 construct: gene PPO1; latent enzyme (active domain plus C-terminal domain, no transit peptide), expressed in E. coli from pGEX-6P-1 with N-terminal GST tag (tag absent by mass)
In kind it is biochemical. The conditions noted are these: pH 6.0, 50 mM sodium phosphate, 2.0 mM SDS as activator, 25 °C. From the text: (§2) photometric initial rates, Michaelis-Menten fit on jrPPO1

Substrate in data set [3]: NCCc1ccc(O)c(O)c1
In kind it is biochemical, Juglans regia. As to conditions: pH 6.0, 50 mM sodium phosphate, 2.0 mM SDS as activator, 25 °C.
Excerpt: as §2

Substrate in data set [4]: CCOC(=O)c1cc(O)c(O)c(O)c1
In kind it is biochemical, Juglans regia. The conditions noted are these: pH 6.0, 50 mM sodium phosphate, 2.5 mM SDS as activator, 25 °C.
Excerpt: as §1

Substrate in data set [5]: NCCc1ccc(O)c(O)c1
The class given is biochemical, Juglans regia. The conditions noted are these: pH 6.0, 50 mM sodium phosphate, 2.5 mM SDS as activator, 25 °C.
Excerpt: as §1

Substrate in data set [6]: NCCc1ccc(O)cc1
The class given is biochemical, Juglans regia. As to conditions: pH 6.0, 50 mM sodium phosphate, 2.5 mM SDS as activator, 25 °C.
Excerpt: as §1

Substrate in data set [7]: N[C@@H](Cc1ccc(O)c(O)c1)C(=O)O
The class given is biochemical, Juglans regia. The conditions noted are these: pH 6.0, 50 mM sodium phosphate, 2.5 mM SDS as activator, 25 °C.
Excerpt: as §1

Substrate in data set [8]: O=C(O)/C=C/c1ccc(O)c(O)c1
In kind it is biochemical, Juglans regia. The conditions noted are these: pH 6.0, 50 mM sodium phosphate, 2.5 mM SDS as activator, 25 °C.
Excerpt: as §1

Substrate in data set [9]: O=C(O)/C=C/c1ccc(O)cc1
The class given is biochemical, Juglans regia. The conditions noted are these: pH 6.0, 50 mM sodium phosphate, 2.5 mM SDS as activator, 25 °C.
Excerpt: as §1

Substrate in data set [10]: O=C(O)Cc1ccc(O)cc1
In kind it is biochemical, Juglans regia. As to conditions: pH 6.0, 50 mM sodium phosphate, 2.5 mM SDS as activator, 25 °C.
Excerpt: as §1

Substrate in data set [11]: O=C(O)c1cc(O)c(O)c(O)c1
The class given is biochemical, Juglans regia. The conditions noted are these: pH 6.0, 50 mM sodium phosphate, 2.5 mM SDS as activator, 25 °C.
Excerpt: as §1

Substrate in data set [12]: O=C(O)c1ccc(O)c(O)c1
In kind it is biochemical, Juglans regia. The conditions noted are these: pH 6.0, 50 mM sodium phosphate, 2.5 mM SDS as activator, 25 °C.
Excerpt: as §1

Substrate in data set [13]: O=C1c2c(O)cc(O)cc2O[C@H](c2ccc(O)c(O)c2)[C@H]1O
In kind it is biochemical, Juglans regia. As to conditions: pH 6.0, 50 mM sodium phosphate, 2.5 mM SDS as activator, 10% DMSO, 25 °C.
Excerpt: as §1

T2 sequence (C0LU17 entry or part of it): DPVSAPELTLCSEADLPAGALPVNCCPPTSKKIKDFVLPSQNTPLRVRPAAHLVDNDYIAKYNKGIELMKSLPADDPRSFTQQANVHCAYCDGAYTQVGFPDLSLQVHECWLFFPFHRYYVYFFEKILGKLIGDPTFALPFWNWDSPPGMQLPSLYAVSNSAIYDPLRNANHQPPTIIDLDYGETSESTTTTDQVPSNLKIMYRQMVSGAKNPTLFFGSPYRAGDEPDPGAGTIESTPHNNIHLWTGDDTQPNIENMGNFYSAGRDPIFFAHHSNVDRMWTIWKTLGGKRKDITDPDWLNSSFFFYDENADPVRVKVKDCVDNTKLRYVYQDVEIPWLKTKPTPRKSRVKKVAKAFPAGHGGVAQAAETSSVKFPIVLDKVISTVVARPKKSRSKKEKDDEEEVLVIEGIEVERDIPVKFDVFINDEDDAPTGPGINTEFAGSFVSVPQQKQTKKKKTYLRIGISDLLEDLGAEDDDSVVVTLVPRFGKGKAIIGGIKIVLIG

On to `Oc1cccc(O)c1O` [compound 1, Pyrogallol], for which the Michaelis-Menten constant (Km) (in general, the substrate concentration at which the rate is half of its maximum) stood at 1000 ± 120 µM in data set [1] and 1200 ± 130 µM in data set [2].

B1: jrPPO1 (Juglans regia; N340G) (protein)
chain: DPVSAPELTLCSEADLPAGALPVNCCPPTSKKIKDFVLPSQNTPLRVRPAAHLVDNDYIAKYNKGIELMKSLPADDPRSFTQQANVHCAYCDGAYTQVGFPDLSLQVHECWLFFPFHRYYVYFFEKILGKLIGDPTFALPFWNWDSPPGMQLPSLYAVSNSAIYDPLRNANHQPPTIIDLDYGETSESTTTTDQVPSNLKIMYRQMVSGAKNPTLFFGSPYRAGDEPDPGAGTIESTPHGNIHLWTGDDTQPNIENMGNFYSAGRDPIFFAHHSNVDRMWTIWKTLGGKRKDITDPDWLNSSFFFYDENADPVRVKVKDCVDNTKLRYVYQDVEIPWLKTKPTPRKSRVKKVAKAFPAGHGGVAQAAETSSVKFPIVLDKVISTVVARPKKSRSKKEKDDEEEVLVIEGIEVERDIPVKFDVFINDEDDAPTGPGINTEFAGSFVSVPQQKQTKKKKTYLRIGISDLLEDLGAEDDDSVVVTLVPRFGKGKAIIGGIKIVLIG
notes: latent enzyme (active domain plus C-terminal domain, no transit peptide), expressed in E. coli from pGEX-6P-1 with N-terminal GST tag (tag absent by mass)
As to B1, in [3], the Km was determined as 490 ± 70 µM; the kcat (in general, the number of substrate molecules converted per active site and unit of time at saturation) was 300 ± 16.5 s⁻¹; the kcat/Km (as a rule, the second-order rate constant that governs catalysis at low substrate concentration) amounted to 612000 ± 93700 M⁻¹ s⁻¹.

B2: jrPPO2 (Juglans regia; D361N/D582N/F398L/S401P) (protein)
chain: APVSAPDITKCGKADFPAGAKPTNCCPPPSTKIIDFKLPTKNSPLRVRPAAHLADKEYIAKYNKAIELMKALPADDPRNFTQQANVHCAYCDGAYEQVGFPNLDLQVHNSWLFFPFHRYYLYFYEKILGKLIGDPTFALPFWNWDAPAGMQLPAMYANPKSSLYDALRNANHQPPTLMDLDYNGTDEETTSQDQLSANLSIMYRQMVSNGKNAKLFLGSAYRAGDEPDPGAGSIENIPHGPVHIWTGDNTQPNLENMGNFYSAGRDPIFFAHHSNVDRMWSIWKTLGGKRTDLTEPDWLNAGFLFYDENGQAVRVKVKDCLDTTKLGYVYQDVDLPWLKSKPTRKSKLKKVAKFFHLGHQGDVAIAAETSPSVNFPIVLDKVISTVVARPRKSRSKKEKEDEEEVLVIGAIEFDRDAPVKFDVFINDEDDSPTTRPDKTEFAGSFVNVPHKHKHGKKMNTCLRLGISDLLEDLDAENDDTIVVTLVPRYGKGLASINGIKIELLD
notes: latent enzyme (active domain plus C-terminal domain, no transit peptide), E. coli, pGEX-6P-1, N-terminal GST tag (absent by mass)
For the molecule B2, the Km turned out to be 6600 ± 790 µM in data set [4]; 790 ± 170 µM in [5]; 490 ± 110 µM in data set [6]; 5660 ± 700 µM in data set [7]; 210 ± 20 µM in [8]; 940 ± 120 µM in [9]. Besides, the Km was found to be 4430 ± 550 µM in data set [10], 180 ± 40 µM in data set [11], 90 ± 20 µM in data set [12] and 920 ± 150 µM in [13]. Further, the kcat in data set [4] worked out at 59.5 ± 3.89 s⁻¹; in data set [5] it was 186 ± 19.1 s⁻¹; in data set [6] it was 9.14 ± 0.83 s⁻¹; in data set [7], 132 ± 7.05 s⁻¹; in data set [8] it was 8.37 ± 0.2 s⁻¹; in data set [9] it was 0.37 ± 0.02 s⁻¹. Moreover, the kcat in data set [10] amounted to 32.3 ± 2.18 s⁻¹; in data set [11], 2.07 ± 0.18 s⁻¹; in data set [12] it was 9.84 ± 0.52 s⁻¹; in data set [13], 19.6 ± 2.04 s⁻¹. Besides, the kcat/Km in [4] was found to be 9020 ± 1220 M⁻¹ s⁻¹; in [5], 235000 ± 56100 M⁻¹ s⁻¹; in data set [6], 18700 ± 4650 M⁻¹ s⁻¹; in [7], 23300 ± 3140 M⁻¹ s⁻¹; in data set [8] it was 39900 ± 3910 M⁻¹ s⁻¹; in data set [9], 390 ± 50 M⁻¹ s⁻¹. The kcat/Km in data set [10] stood at 7290 ± 1030 M⁻¹ s⁻¹; in data set [11], 11500 ± 2740 M⁻¹ s⁻¹; in data set [12], 109000 ± 25000 M⁻¹ s⁻¹; in [13], 21300 ± 4120 M⁻¹ s⁻¹.

B3: jrPPO2 (Juglans regia; D361N/D582N/F398L/G345N/S401P) (protein)
chain: APVSAPDITKCGKADFPAGAKPTNCCPPPSTKIIDFKLPTKNSPLRVRPAAHLADKEYIAKYNKAIELMKALPADDPRNFTQQANVHCAYCDGAYEQVGFPNLDLQVHNSWLFFPFHRYYLYFYEKILGKLIGDPTFALPFWNWDAPAGMQLPAMYANPKSSLYDALRNANHQPPTLMDLDYNGTDEETTSQDQLSANLSIMYRQMVSNGKNAKLFLGSAYRAGDEPDPGAGSIENIPHNPVHIWTGDNTQPNLENMGNFYSAGRDPIFFAHHSNVDRMWSIWKTLGGKRTDLTEPDWLNAGFLFYDENGQAVRVKVKDCLDTTKLGYVYQDVDLPWLKSKPTRKSKLKKVAKFFHLGHQGDVAIAAETSPSVNFPIVLDKVISTVVARPRKSRSKKEKEDEEEVLVIGAIEFDRDAPVKFDVFINDEDDSPTTRPDKTEFAGSFVNVPHKHKHGKKMNTCLRLGISDLLEDLDAENDDTIVVTLVPRYGKGLASINGIKIELLD
notes: as for B2
In the case of B3, in data set [6], the Km came to 210 ± 60 µM, the kcat stood at 10.9 ± 0.71 s⁻¹ and the kcat/Km was 51900 ± 15300 M⁻¹ s⁻¹.
